B1: PRAME (parent)
chain: KKLKIFAMPMQDIKMILKMVQLDS

Variants of: B1
Test: protein stability index of a GFP-peptide fusion (GPS, HEK-293T) (PSI 1-6); higher = more stable
Conditions: c terminus: a fixed tail appended
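Further: lentivirally expressed fusions sorted by FACS into six bins by GFP to DsRed ratio, PSI derived from sequencing read proportions per bin multiplied by bin number.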

Protein stability index, by site and new letter:
M15: H 3.17 | I 2.09 | R 2.25 | E 2.36 | F 2.51 | N 1.59 | P 1.81 | Q 1 | K 3.85 | V 2.85 | G 2.96 | T 2.15 | D 2.22 | A 2.66 | C 2.02
M10: G 3.5 | D 2.39 | A 1.93 | P 2.72 | N 2.7 | Y 2.52 | V 3.74 | T 2.93 | E 3.14 | Q 1.93 | C 2.5 | R 2.7 | K 2.06 | H 2.12
K18: H 2.65 | L 3.04 | G 3.49 | A 3.37 | D 2.22 | E 3.69 | F 3.27
P9: L 1.62 | W 4.76 | H 2.22 | T 4.36 | C 2.96 | I 2.11 | Y 1.43 | F 2.42 | V 2.94 | N 1.79
M8: L 2.91 | K 2.42 | P 1.72 | T 2.71 | D 3.23 | W 4.52 | S 2.46 | A 2.02 | V 3.54 | F 2.88 | H 3.92 | E 1.39 | C 4.6 | N 3.02 | R 3.05
I16: E 1.47 | N 1.23 | G 2.32 | C 2.5 | P 1.63 | L 1.71 | F 3.41 | R 1.75 | Y 3.04 | H 2.66 | V 2.48 | Q 1.6 | D 1.73 | S 3.21 | W 2.79 | T 3.06 | K 1.69
A7: P 2.85 | N 2.46 | V 2.83 | W 3.77 | S 3.04 | Y 4.92 | Q 2 | R 2.61
Q11: A 3.71 | P 3.82 | G 3.84 | V 2.19 | M 2.31 | W 3.08 | S 2.52 | R 4.36 | N 2.79 | F 3.43 | L 2.85 | D 2.47 | Y 3.22 | C 2.32 | I 2.57 | K 3.32 | H 3.43 | T 2.39
D12: M 4.16 | P 3.3 | R 2.17 | C 3.07 | N 2.5 | K 2.75 | Y 3.17 | F 3.57 | Q 4.16 | T 3.29 | L 2.29 | I 1.63 | E 2.5 | A 2.14 | W 3.37
I13: V 3.55 | S 2.45 | P 1.32 | H 1.84 | R 2.96 | Q 1.93 | N 1.54 | A 2.39 | Y 4.03 | M 2.88 | W 1.03 | T 1.64 | F 2.23 | D 2.66 | E 1.65 | K 1.44
K14: H 3.17 | N 3.16 | R 1.65 | C 2.52 | T 1.64 | I 3.61 | S 1.59 | D 3.25 | E 2.98 | P 3.66 | Q 2.64 | G 2.88 | Y 2.42 | V 2.44
L17: D 1.88 | P 2.27 | N 1.5 | T 1.12 | A 2.66 | G 1.71 | Q 1.62 | I 2.19 | R 1.75 | K 2.11 | S 2.1 | V 2.64 | E 2.04 | W 2.06 | Y 3.8 | H 2.39 | C 2.73 | M 2.59

From the supplement of paper PMC10567573
